The source of these data is US20220243288, “BIOSENSORS FOR POLYKETIDE EXTENDER UNITS AND USES THEREOF” (NORTH CAROLINA STATE UNIVERSITY, published 2022).

The data set deals with T1, FapR (Bacillus subtilis, UniProt O34835 SEQ:1-188).
T1 sequence: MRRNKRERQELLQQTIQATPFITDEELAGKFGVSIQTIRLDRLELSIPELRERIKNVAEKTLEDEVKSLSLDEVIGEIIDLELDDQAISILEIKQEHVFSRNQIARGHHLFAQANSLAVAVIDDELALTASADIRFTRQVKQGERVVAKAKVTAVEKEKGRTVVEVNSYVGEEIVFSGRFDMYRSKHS
The data set is described as follows: EMSA; near-complete shift; 2 pmol fapO, 6 pmol FapR (text also says two-fold excess); 10 mM Tris pH 7.5, 100 mM KCl, 30 C; released by 200 uM malonyl-CoA or methylmalonyl-CoA. The conditions noted are these: tags: C-terminal His6 (pET28a); chain copies: 2. An excerpt:
The saturated alkyl derivatives emCoA and bmCoA were the poorest effectors, based on the fluorescence data. This robust activity of pgmCoA is due in part to the increased rigidity of the alkyne side-chain or additional interactions of the alkynyl […] with the FapR ligand-binding site, with the […] side-chain of the nearby Phe99 (FIG. 5A). Gratifyingly, de-repression was not observed in the presence of propionyl-CoA and was indistinguishable from the (−) thioester control. To provide further evidence that FapR is de-repressed by derivatives of mCoA, FapR was tested in vitro for DNA-binding and release by electrophoretic mobility shift assay (EMSA) in the presence of mCoA or mmCoA. Using purified wild-type FapR protein, EMSA was run with a 40 bp DNA fragment containing the fapO binding site (FIG. 7). […] Incubation with the FapR-fapO complex with mmCoA achieved a similar level of de-repression as that observed with mCoA (FIG. 7).
Electrophoretic mobility shift assay. The fapO oligonucleotides 5′-[…]-3′ (SEQ ID NO:30) and 5′-[…]-3′ (SEQ ID NO:31) were annealed per standard procedure. […] Reactions were then analyzed by electrophoresis on a 6% PAGE gel at 220 V. The gel was stained with SYBR Green I and imaged on a Typhoon FLA 7000.
On the technique in general: In EMSA bound probe runs differently from free probe, usually more slowly.

B1: 40 bp fapO fragment (dsDNA)
DNA 1: CCTAGGACTATTAGTACCTAGTCTTAATTGTCCGGCATCC
DNA 2: GGATGCCGGACAATTAAGACTAGGTACTAATAGTCCTAGG
Regarding B1, the binding result was “binds”.
